In the NTF2 design screens of Basanta et al. (2020):

experiment: protease stability score; higher = more stable; yeast display proteolysis, trypsin and chymotrypsin;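 also: relative to predicted unfolded state with 0 unfolded-like and 1 meaning tenfold more protease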

Row | Sequence | protease stability score
1 | DEEDELLMKVLTEWFHALRTGDEEKLDELADPNVRIEIGDKELHGMEVWQEYLRRYDHDRQDKVHFRTHEKQGNKLILDVEEDVVIEVNGKRIRTHVRSEIILVKINGRWVFTSIIVH | 1.34
2 | SEDEDLSRHLSELWLDALRTGDEKSTHKMADPHTRVEVGDKTDHGMEVWNRIFERFKGARLEITEWRTIGEKVHYHMHIEYGDKHVDVEIEIIQINGQVKEFIIRVRIK | 0.249
3 | SDLDHQARRALEETFKAFETGDEHTWNRLVDPHVRLNVNGQEFHGMELIREWFKQDRDELRLKTIELKRVSVQGDYVHIDSTYYYEYNGQHRILEVHIHAVKFDGRWVVKRIHIH | 0.662
4 | DEDDELKKTAVHDFTRDIATGDEESLHKLVDPHVRTTFDGQDLIGREHMWEHIHRLLRRYKNIRSEHIHIREIHVVDGVVESHTHIHMRIGEFKFIFNVHVFILKVDGVWFVHEAHYV | 0.886
5 | SEDEFDARLVYKLVLDLLLTGDPDTWRKLFDPNVKINIDGVDYHGMKEFERIVKEIRVIIHDSELHDVETQGDKIIYHGIIDGTYHVNGRTIRERRTFTIIAHKVDGRWILHSISYE | 1.22
6 | DEEEEQTHHMFKRILEVLRTGDERMLLDLADPHVRLEVGDKHMIGMDSLVHFNARIKNMRIRLRSIDFQGDYAHINTELEFDGRNHHITIVVLKVDGKWIIRSQHVK | 1.46
7 | SEEEESTHVWSRLFSHAIETGDEDLLERLIDPHVKLIVDGRELHGREELLTWIRRLFRHLGIDHMEVRIKNFDIINGRIRVEDELLLIVNGKEIRLETKVTVEKFDGKWHNQEVKIE | 0.776
8 | DEITEHTRSLMEVMLRVWETGDWKRFRELADPNVRMNVNGREVHGRDSVAKEIYKMLSDLGVDHSTTHHVDLIGNKAHHDVRMFFNGRETEIRIDIVLINGKVREVNIEIHTR | 2.14
9 | DEEEHSAEHAIRILIELLYTGDEDQLERFMDPNTRLHIYFEGHEIHHHGMELISEIFSEIIHRIKNITYRVEDFHLVNGRVHLHGRWNINGKRTKEHWVVLKVDGVWILERVHIHIQ | 1.27
10 | SEEEEQVERAIKLTEELIDTGNWKEISKLADPNARLNVNGREFHGREMVSENIKRFFEELGVDHIEVKHIRIQGNKVEVDTELRVGDKYHDLHLLFLKVNGQWLLKEVTVR | 1.22
11 | SEDEKISEEALRRWVHHNRTGNEQDYVRMADPDTKIEIGDKEFHGREEFVKLARDYGFKHYHLKDNDVIGDKIRIDGIVEFNGQRWEMILYFVKYDGRWSIKSIHIK | 1.45
12 | SEDEEQAEHFLRLLVEALVTGDEDKIMKLIDPNVRLEAEGHDHHGRELFVKFWMELRVKEVQIEDVKLWNGRVRFDVRFDGTFNGKRFESTSHIILTKINGKWVLKKVEMR | 0.106
13 | SEDEQESRDIIKLLDKSIETGDEKTATRLADPHMRLDIDGVDLHGREEFVRWVIFVVREMRSRVEHTRVRMYDGRAEVDTTLLFIFEGRELRVESHIIMLKIDGRWIIHEVRIH | 1.26
14 | SEERAKKVAKKLMEAFVKGNKDDAKDALQEDVQLHIAGTTYHGPKAVEKLIEFWQRVGVEVKVQEVRVKGNHVEIQTQVHLGDNTTTVRYKIQVEGDKVKKLQLNFSEEVFKQAKDG | 2
15 | EENREITEKIMRHWLTLFLTGDFERLIELMDPEVKFLIDGRELHGWEVWRKLMTLTIRRYKNIRIHITSIDVFENHTHVETYENVNGVHIDTRLNLFLVNGRIQSIEMDTK | 1.7
16 | DEREHDLRRAVHIHRELMMTGDESNFLSYADPNTRLEVDGQEVVGREEVFKWITNVLSRHGVELKDIRVKTMDHQGNKLILHVEIRTRIGEKDTSVDFTLVVEKVNGRWVLHSLEIH | 0.16
17 | DEDEKYVREVFRRFVEAVITGNEEELLELIDPHVRVLINGVDNMGREKWSEWMKRYGFRVHHVRIDDEDLINGVARLDTTEDVEYDGRRDTRHSHIIINKVDGRWHIERLEFR | 1.01
18 | DEEEKLVEEALREFLRDLMTGDEDSLLRQIDPNARHVYNGQEFHGRKWFEEMHKRMGMELKRIEIKDSDIVNGRAISHVEVHSRIGDKRLRIETEIVTLKVNGQWLVKSLSLI | 1.15
19 | SEEHRESEEASHEFRRLWETGDEKDFLKLADPHTRLEVNGKDIHGMREVTEFMKRRLHHLGFKHSDVKHEHVEVFDGKVRIEMIIEIHVNGVPLHTEVLVILTKINGKWRIHSITEEIK | 0.69
20 | DEEKRHSDEIIEEWVRSLITGDEKRIRELHDPTTLLNNENEKYHGMEIATELRRRIRENMGIKHSEVRVHDIEWQGDKITIYGRLILRFNGKEVEHELLIVATKINGRWVLRSMRIE | 1.48
21 | SEDEEVAERFLRLLIESLMTGDEDSFKSLLDPNDRLHIGEKHNHGRNLIVELLTRFGIELEHIELKSVEVINGRIHVNTHIRFIQGDKHIETEMRLNVDKIDGRWRLRSMHID | 1.98
22 | SETEKELHEFFRLWIQLFLTGDFDELKHYIDPNVRSVINGRQLIGMEEVWRWREEARIKDIEIKDVRVQGDKIEADGVLEGTINGVDRRTDTHIQLNVVNGVAKHTFIRIR | 1.45
23 | TEDDEILREALEIWRYVEQTGDEEDTHRMVDPHAKMIFNGKEIHGREHISRWMKEIRIHELRVHSFRVIDGRLILEVELVGRFNGREDTIEVEIISEKVDGRWVVSSLTIR | 1.29
24 | DEEEDLQRHVADEFLHNLLTGNEHDIERLMDPNVKLIMDVNGVKLHFHGREQVLKLLREWRLDHWEVKRRHLVGDYAVLDGHQQGVIDGREVRTDSEIELRLYNGRMKEVTIRVR | 1.47
25 | SEVEKHLHNVIELYIRALRTGDEERLRKLLDPHVRVRIGDKHLHGREDWWQHVTRYDHESVHDLKIDHVRVVGNKIEMIITHDIIIIVNGVNLRHSIETEVHARKVDGVWYLTELHHG | 0.075

Row | Sequence | protease stability score
26 | DEEERMAHEVAEILLRSLHTGDWRRDMDLLDPHVRFDFNGVHLHGREEWLRHLHEFWRKFGVEFFDLHEDNISIQGDKAIMDGQIEFNGRRTKQKLEITVIDGRVKEVRVEIH | 0.59
27 | SEEEEYFRFVAEEFLKAWSTGNEEILERLFDPRVRLSFNGKQFHGRERVHDKLMQLLEHLGINHTRIDDREFRIIGDKAEIRIDLILHVGDKTLRVEVILIITKVNGVWMMKEVELRIH | 1.51
28 | TDDEREAVRFSEEVMHSFITGDEEHLDRLMDPNTKLTVNGKEIHGRQDVLEFIKRYRRELGVKYSEFVVHSVDDFDGRLRNNTELNINVDGKHIRLDTRVDMIKFNGRWQLHSIRFD | 1.44
29 | DEERHILEELMRILTEAMHTGDEHLLEWLLDPHMIIEIGDKTLHGRDQILRVVEEIRRHIRRIEVKHSHVQGDKIRIEGHMHSETEFNGRRFSFTVYVEIIIVKINGVWRIRSLHIH | 1.39
30 | SEDEEKVFEHLQRITESFVTGDEDSFRHLLDPNVLFLINGRIFHGWEALHWELRRYDHHEVRVHVHHIDFINGRARSDIRLDLHLNFNGKQIDIHTETRVHAEKINGRWRLKRIDIE | 0.811
31 | DEEEKVVFELLRLFITAWETGDEDVLLRLADPNVRMTIGDKHYHGMEHFSHVYLLIFEELRITVKVHDIRIIGDKAYVDVEERRHQGDKSWKYRTHYEFEKIDGRWKLRRVEVK | 2.54
32 | DHMEEDVRVAVKIWEETYRTGDEQEINDLVDPNVRVNINGQDYHGRHWLRQIIIEDRRRADHIEIRIDHIEVIGDKVILRGLVIMIQGDKRFDIRMRIFDRKVNGRWHLHNLEQE | 2.08
33 | DEDFELAERFLEKWINVSRTGDEKKAHELVDPNVLINIGDKQIHGRERVVEWVSHIRIHHLEIHHFDVQGDKLIIDGRMDGTVNGRRVDHHIRIIISKVNGRWQTKTIDHE | 0.665
34 | REKDDEMDRIVKIFYHVLRTGNEELLDTLIDPDTRIEVDINGVNYISHGREEWKRVIEELLRHMRINSIIIHDIRYQGNKATIDNHADLEFDGVRFEMRSELRIIVVNGRYRSFSRIIR | 1.13
35 | SEEEEDLKTMSDFVLHLFETGDEDIFNHFADPDARLHIGDKIAHGREHFKRVFEDLMHRLGVDHIEIRRRSITIIGDKVHAHVDGLTVIGDKVHHVELRFVIVKYNGRWFLKRVEVHNR | 1.71
36 | SEDEREFEEFVRFFFKMMVTGDEDDLIRLLDPHAKFEINGKILHGWRHLLEEIREMGIKHWKIRDIKVQGEKVENELELEVGEKRFHIRLIATKVNGKWHVKEFSIHEI | 2.29
37 | SEEEKEAQHLLELENDARRTGDEDFSREMVDPNVKIDINGRDLHGWDVAEELMRQADHVHHEHIRQVEVQGDKLIVDMEINGHINGKSFDIKIHLFIWKYNGKWFVRKIDVK | 1.44
38 | DEHETDKQLAIDLLIEVIQTGDEHTTRRLADPNVKVVIDGREFHGRDFLARMIHEMRFHRIHVEEVRVIDGVVHSNLRVRGEYNGKHVDTRSSIHIKKVNGRWVIESVLIE | 2.04
39 | DHEKEVAERIMRLLFHQLETGDWRLESKMADPNVRLNFNGVHLHGMETSVKWLEELRIHSFRIRDMRIDIINGVAVADNDTETEITFDGVRIRTRTHLHIFVSKFDGRWHVSEIEIRIR | 0.094
40 | DDDKREMEEIARRWVESLETGDEDTLTKLADPNTKLELLIDGRENNLIGMRYWLEFLERFKNVTIKFKRMRVQGDKADIETEVNINGQRFRVRIELWVIDGRLHTLHIRIE | 1.23
41 | SEFEKDSEHAARVLMHELHTGDFESLHELADPNDRNSLHIGDKHWFDHGRHWVRKWFERFKNATLIVEDIRLDVQGDKVRMEVDGHLNINGKHYRVHLIFILRKINGKWHVQQVDIHVD | 2.41
42 | SEETEYLRLAIELILNETRTGDEHTFMENADPDAKLNFNGVHLHGMEEVTRRMHELWEELRIRHFELHDVSHVDGRLYVHIRLDVDVNGQKRTFRSEIVSEKINGKWYYKYMTIV | 1.27
43 | DEDKKLVEWVLRMLFEALRTGDEHALNNLFDPNVRIEQGDKRFHGREELIRLFHILGIDHIIIEDKDIKVFDGQLEIDGREVLIFDGRRFEIDMKIYIHKINGRWHVKSVHKD | 1.78
44 | TEEEEHWKHLVELWLRAVETGDEHLLHRLLDPHVKIDYNGKELHGRETHIKIERHFRERYKGLRWEIKHHEIQGDKAHVDFLLNVNGREHRVRIEIIIVNGRVHQIHFDIN | 2.23
45 | HEEETHWRSLTHLFAEWIITGNEDLYMELADPHYLIEIDGKTQHGRENANEVHETFWKDYGFKHRHVRSVRQVGDFVEIEVNLLFNGQRYDMHIHVFVIDGKLKEIHVSLK | 1.33
46 | HENEENETEAIRLFLRVMLTGDEHDLKRMFDPDMKVEIGDKRIVGRERVLEHWLHTAERFGLTNIYLQLDHVRVINGRVDIDFHVRFNGRTERVHLHILKINGKWIVEHLEVR | 1.36
47 | SEEEKLLTDWLRELEEVTRTGDEESIMRMVDPNDKMDVGDKHRHGMHAQEVWIEVFRRQFGIDNFEVRLIINHRRIVDGQAHVDGELQLIYNGRTTSLRIELIIDKFDGRWLISSIRYN | 1.19
48 | DESHELWRRNLELILQSRHTGDEFLTKELFDPRMRSNVNGVELHGMEEMLKFVSEIRIHVEHFRLHRIETQGDKIHIRAHEVINIEIGDYHVRLDTWVEMHDVKYNGRWFNTEVHIR | 0.979
49 | DEEEEQAHTMLEIFLHNLVTGNEETINTLMDPHARTDIDGKIFHGRDWLEHFLRRFPHVRLHLKHIEWRVINGVAHLHLEMHVNVDGRHFDVRFHIHNEKINGRWFSHSFKYSIE | 1.44
50 | SEEEEEMERILKYIFRLLTTGNWKELTDNLDPDVRIIIGDKTLIGREEFQRKFKDDHDKFKNMRLEIKDSHMQGDKIIIHLQVDIGDKHFEVIIYVVKINGRWHLKTLEIR | 2.09
